In the nanobody polyreactivity screen of Harvey et al. (2022):

Test: yeast display, Sf9 membrane polyspecificity reagent, FACS + sequencing; frameworks hold sequencing errors
How it was run: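 Using colony PCR, genes from sorted yeast display clones were amplified, then sequenced on MiSeq at 2 × 250 and filtered by CDR length. The clones had been stained with 10% biotinylated, detergent-solubilized Sf9 membrane reagent for 1 hour at 4 °C and sorted by FACS into low and high (top ~1%) gates on anti-HA and streptavidin fluorescence. Polyreactivity labels come from the gate of origin.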

Row | Sequence | polyreactivity (PSR sort gate)
1 | QVQLVESGGGLVQAGGSLRLSCAASGSTFQRYAMGWYRQAPGKERELVAAITSGGSTYYADSVKGRFTISRDNAKNTVYLQMNSQKPEDTAVYYCNAAWFYRYGYWGQGTQVTVSS | high polyreactivity
2 | QVQLVESGGGLVQAGGSLRLSCAASGSTFQSNAMGWYRQAPGKERELVAAISSSAGTTFYADSVKGRFTISRDNAKNTVYLQMNSLKPEDTAVYYCAKKDFYFAPSPGYYRSRDYWGQGTQVTVSS | low polyreactivity
3 | QVQLVESGGGLVQAGGSLRLSCAASGSTFQSYAMGWYRQAPGKERELVAAISFSGGSTYYADSVKGRFTNSRDNSKNTVYLQMNSLIPEDTAVYYCAKRGWVYFHGYDYWGQGTQVTVSS | low polyreactivity
4 | QVQLVESGGGLVQAGGSLRLSCAASGSTFQSYAMGWYRQAPGKERELVAGITSGDSTNYADSVKGRFTISRDNAKNTVYLQMNSLKPEDTAVYYCNAVTQARYYYWGQGTQVTVSS | low polyreactivity
5 | QVQLVESGGGLVQAGGSLRLSCAASGSTFQTYAMGWYRQAPGKERELVAAISFNGGSTYYADSVKGRFTISRDNAKNTVYLQMNSLKPEDTAVYYCAVEYTWASALYDGRHDYWGQGTQVTVSS | high polyreactivity
6 | QVQLVESGGGLVQAGGSLRLSCAASGSTFQTYAMGWYRQAPGKERELVAAISRRSGSTYYADSVKGRFTISRDNAKNTVYLQMNSLKPEDTAVYYCAARYVSRRFLGYYYWGQGTQVTVSS | high polyreactivity
7 | QVQLVESGGGLVQAGGSLRLSCAASGSTFQTYVMGWYRQAPGKERELVAAISSGGSTNYADSVKGRFTISRDNAKNTVYLQMNSLKPEDTAVYYCAKRWPYFRRGKDGYWGQGTQVTVSS | low polyreactivity
8 | QVQLVESGGGLVQAGGSLRLSCAASGSTFQVYGMGWYRQAPGKERELVAAISRSGGRTYYADSVKGRFTISRDNAKNTVYLQMNSLKPEDTAVYYCAKTYQTTTSKSGYYYWGQGTQVTVSS | high polyreactivity
9 | QVQLVESGGGLVQAGGSLRLSCAASGSTFQWYAIGWYRQAPGKERELVATISYTGGSRTYYADSVKGRFTISRDNAKNTVYLQMNILKPEDTAVYYCAAESNQLFYFRRFDYWGQGTQVTVSS | low polyreactivity
10 | QVQLVESGGGLVQAGGSLRLSCAASGSTFQYNAMGWYRQAPGKERELVATITWSGGSTYYADSVKGRFTISRDNAKNTVYLQMNSLKPEDTAVYYCAADYYYGYEFGYWGQGTKVTVSS | low polyreactivity
11 | QVQLVESGGGLVQAGGSLRLSCAASGSTFQYNVMGWYRQAPGKERELVATISYSSGRTYYADSVKGRFTISRDNAKNTVYLQMNSLKPEDTAVYYCAAAVRLYFWTSAYKYGYWGQGTQVTVSS | high polyreactivity
12 | QVQLVESGGGLVQAGGSLRLSCAASGSTFQYYAMGWYRPAPGKERELVAAISSGGSTYYADSVMGRFTISRDNAKNTVYLQMNSLKPEDNAVYYCAAYDYDGVYGYCGQGTQVTVSS | high polyreactivity
13 | QVQLVESGGGLVQAGGSLRLSCAASGSTFQYYAMGWYRQAPGKEREFVAAIHWDGGRTYYADSVKGRFTISRDNAKNTVYLQMNSLKPEDTAVYYCAAYTRYKMDYWGQGTQVTVSS | high polyreactivity
14 | QVQLVESGGGLVQAGGSLRLSCAASGSTFQYYAMGWYRQAPGKERELFAVITGAGGTNYADSVKGRFTISRDNAKNTVYLQMNSLKPEDTAVYYCAARSPGTRWGDYDYWGQGTQVTVSS | low polyreactivity
15 | QVQLVESGGGLVQAGGSLRLSCAASGSTFQYYAMGWYRQAPGKERELVAAISAGGTRTYYADSVKGRFTISRDNAKNTVYLQMNSLKPEDPAVYYCNADDLHFVARYDYWGQGTQVTVSS | low polyreactivity
16 | QVQLVESGGGLVQAGGSLRLSCAASGSTFQYYAMGWYRQAPGKERELVAAISYRGSTYYADSVKGRFTISRDNAKNTVYLQMNSLKPEDTAVYYCAAVNRPWYSFGYGYWGQGTQVTVSS | high polyreactivity

Row | Sequence | polyreactivity (PSR sort gate)
17 | QVQLVESGGGLVQAGGSLRLSCAASGSTFQYYAMGWYRQAPGKERELVASITWGGDNTDYADSVKGRFTISRDNAKNTVYLQMNSLKPEDTAVYYCNTVRSNKMDYWGQGTQVTVSS | high polyreactivity
18 | QVQLVESGGGLVQAGGSLRLSCAASGSTFQYYDMGWYRQAPGKERELVASITGSGDSTYYADSVKGRFTISRDNAKNTVYLQMNSLKPEDTAVYYCAAQNTWSGDYDYWGQGTQVTVSS | low polyreactivity
19 | QVQLVESGGGLVQAGGSLRLSCAASGSTFRDNAMGWYRQAPGKERELVAAISRSGARTYYADSVKGRFTISRDNAKNTVYLQMNSLKPEDTAVYYCNAVWRVKYRRGLDYWGQGTQVTVSS | high polyreactivity
20 | QVQLVESGGGLVQAGGSLRLSCAASGSTFRDYAMGWYRQAPGKERELVAAISNSGGRTYYADSVKGRFTISRDNAKNTVYLQMNSLKPEDTAVYYCNAGRQTKWGQGTQVTVSS | high polyreactivity
21 | QVQLVESGGGLVQAGGSLRLSCAASGSTFRDYAMGWYRQAPGKERELVAAITQNGGSTYYADSVKGRFTISRDNAKNSVYLQMNSLKPEDTAVYDCAADSDWFVWQEDYWGQGTQVTVSS | low polyreactivity
22 | QVQLVESGGGLVQAGGSLRLSCAASGSTFREYTMGWYRQAPGKERELVAAITNSGGSTYYADSVKGRFTISRDNAKNTVYLQLNSLKPEDTAVYYCAAEVGIVDYDYWGQGTQVTVSS | low polyreactivity
23 | QVQLVESGGGLVQAGGSLRLSCAASGSTFRFYAMGWYRQAPGKERELVAAITWRSGRTSYADSVKGRFTISRDNAKNTVYLQMNSLKPDDTAVYYCAATSVYRYDYWGQGTLVTVSS | high polyreactivity
24 | QVQLVESGGGLVQAGGSLRLSCAASGSTFRFYAMGWYRQAPGKERELVAGITGSGDSTYYADSVKGRFTISRDNAKNTVYLQMNSLKPEDTAVYYCNKRVVYRSSQFDYWGQGTQVTVSS | low polyreactivity
25 | QVQLVESGGGLVQAGGSLRLSCAASGSTFRFYTMGWYRPAPGKERELVATISRGGSTYADSVKGRFTISRDNAKNTVYLQMYSLKPEDTAVYYCAKRGYSSWPYDYWGQGTQVSVSS | low polyreactivity
26 | QVQLVESGGGLVQAGGSLRLSCAASGSTFRGFAMGWYRQAPGKERELVAAISSRGASTHYADSVKGRFTISRDNANNTVYLQLTSLKPEDTAVYYCNKRQVFVSTGVYEFDYWGQGTQVTVSS | low polyreactivity
27 | QVQLVESGGGLVQAGGSLRLSCAASGSTFRGNAMGWYRQAPGKERELVAAITGRGGRTYYADSVKGRFTISRDNAKNTVYLQMNSLKPEDTAVYYCAAYSRYKPYGITAYDYWGQGTQVTVSS | high polyreactivity
28 | QVQLVESGGGLVQAGGSLRLSCAASGSTFRGNAMGWYRQAPGKERELVASITGGGSTNYADSVKGRFTISRDNAKNTVYLQMNSLKPEDTAVYYCAADWGADFYGGQGTQVTVSS | low polyreactivity
29 | QVQLVESGGGLVQAGGSLRLSCAASGSTFRGYAMGWYRQAPGKERELVAAITRGGSTYYADSVKGRFTISRDNAKNTVYLQMNSLKPEDTAVYYFYDYWGQGTQVTVSS | low polyreactivity
30 | QVQLVESGGGLVQAGGSLRLSCAASGSTFRGYAMGWYRQAPGKERELVAAITRSGGSTYYADSVKGRFTISRDNAKNTVYLQMNSLKPEDTAVYYCNDRAFPYYRRFDYWGQGTQVTVSS | high polyreactivity
31 | QVQLVESGGGLVQAGGSLRLSCAASGSTFRGYAMGWYRQAPGKERELVAAITYISDSTYYADSVKGRFTLSRDNAKNTVYLQMNSLKPEDTAVYYCNAYYDGDWRYTSQETGDHWGQGTQVTVSS | low polyreactivity
32 | QVQLVESGGGLVQAGGSLRLSCAASGSTFRGYAMGWYRQAPGKERELVASISWNGTSTYYADSVKGRFTISRDNAKNTVYLQMNSLKPEDTAVYYCNVRFNYRGTYDYWGQGTQVTVSS | low polyreactivity
